Like-named read-outs stand apart in the source and are kept apart here. Starred links: 1 amine or outer side, 2 acyl side, 3 side chain; linkers in the order of their positions; H or OH if unused. Non-standard residues stand in square brackets, D forms with d. Groups on a side chain read outwards from the residue. No end group written: not given here. *: point of attachment. Butyryl(4-SO2NHCO(CH2)16Tz) = O=C(CCCCCCCCCCCCCCCCc1nnn[nH]1)NS(=O)(=O)CCCC(=O)*; Decanoyl(10-(4-HOOC-PhO)) = O=C(O)c1ccc(OCCCCCCCCCC(=O)*)cc1; C20 diacid = O=C(O)CCCCCCCCCCCCCCCCCCC(=O)*; C18 diacid = O=C(O)CCCCCCCCCCCCCCCCC(=O)*; C16 diacid = O=C(O)CCCCCCCCCCCCCCC(=O)*; γGlu = O=C(O)[C@H](CCC(=O)[*:2])N[*:1]; εLys = N[C@@H](CCCCN[*:1])C(=O)[*:2]; Trx = NC[C@H]1CC[C@H](C(=O)O)CC1; AEEA = NCCOCCOCC(=O)O; Aib = CC(C)(N)C(=O)O
Assays:
Test in all cases: cell-based or functional assay
[1] = biological target: T1, human amylin-3 (a) receptor (human, UniProt P30988 25-474; O60896 24-148)
T1 sequence (looked up) 1: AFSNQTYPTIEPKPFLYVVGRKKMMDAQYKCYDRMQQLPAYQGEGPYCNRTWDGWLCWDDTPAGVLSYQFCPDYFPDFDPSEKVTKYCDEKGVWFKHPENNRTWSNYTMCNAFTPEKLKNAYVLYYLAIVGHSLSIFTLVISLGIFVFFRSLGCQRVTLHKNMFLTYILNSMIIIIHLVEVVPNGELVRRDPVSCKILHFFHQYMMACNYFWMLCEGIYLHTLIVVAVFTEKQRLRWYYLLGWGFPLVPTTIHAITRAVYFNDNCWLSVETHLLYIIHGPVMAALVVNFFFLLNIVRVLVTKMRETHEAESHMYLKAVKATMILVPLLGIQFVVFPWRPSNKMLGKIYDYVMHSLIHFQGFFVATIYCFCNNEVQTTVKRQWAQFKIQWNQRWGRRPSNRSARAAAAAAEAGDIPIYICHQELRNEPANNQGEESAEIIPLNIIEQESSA
T1 sequence (looked up) 2: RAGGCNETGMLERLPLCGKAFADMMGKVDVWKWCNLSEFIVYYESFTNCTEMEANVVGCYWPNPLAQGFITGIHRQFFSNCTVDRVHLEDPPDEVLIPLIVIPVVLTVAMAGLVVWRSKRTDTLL

human GLP-1 receptor [2] = biological target: T2, human GLP-1 receptor (human, UniProt P43220 24-463)
[3] = biological target: T1, human amylin-3 (a) receptor; remark: listed apart in the source
human GLP-1 receptor [4] = biological target: T2, human GLP-1 receptor; remark: listed apart in the source
[5] = biological target: T1, human amylin-3 (a) receptor; remark: listed apart in the source

Row | Binder | Human AmyR3 potency [EC50 (pM)] [1] [pM] | Human GLP-1R potency [EC50 (pM)] (human GLP-1 receptor [2]) [pM] | Human AmyR3 potency [EC50 (pM)] [3] [pM] | Human GLP-1R potency [EC50 (pM)] (human GLP-1 receptor [4]) [pM] | Human AmyR3 potency [EC50 (pM)] [5] [pM]
1 | EASELSTAALGRLSAELHELATLPRTETGSGSP-NH2 (not fully specified) [Compound 1806] | 5 |  |  |  | 
2 | Compound 0099 (peptide) peptide: HWEGTFTSDVSSYLEEQAARK([AEEA-AEEA-γGlu-Decanoyl(10-(4-HOOC-PhO))])FIEWLVRGK([AEEA-AEEA-γGlu-Decanoyl(10-(4-HOOC-PhO))])GEGEASELSTAALGRLSAELHELATLPRTETGSGSP-NH2 |  | 9.6 | 44.9 |  | 
3 | Compound 0100 (peptide) peptide: HWEGTFTSDVSSYLEEQAARK([AEEA-AEEA-γGlu-Decanoyl(10-(4-HOOC-PhO))])FIEWLVRGK([AEEA-AEEA-γGlu-Decanoyl(10-(4-HOOC-PhO))])GEGGGGGEASELSTAALGRLSAELHELATLPRTETGSGSP-NH2 |  | 6.8 | 30.4 |  | 
4 | Comparator compound 0192 (peptide) peptide: H[Aib]EGTFTSDVSSYLEEQAAREFIAWLVRGRK([AEEA-AEEA-γGlu-Trx-C20 diacid])GGGGEASELSTAALGRPSAELHELATLPRTETGSGSP-NH2 |  |  |  | 10.8 | 10000
5 | Comparator compound 0185 (peptide) peptide: H[Aib]EGTFTSDVSSYLEGQAAKEFIAWLVRGRK([εLys-AEEA-AEEA-γGlu-C18 diacid])GGEASELSTAALGRPSAELHELATLPRTETGSGSP-NH2 |  |  |  | 13.1 | 5660
6 | Compound 0115 (peptide) peptide: H[Aib]EGTFTSDVSSYLEEQAAREFIAWLVRGRK([AEEA-AEEA-γGlu-C18 diacid])EASELSTAALGRLSAELHELATLPRTETGSGSP-NH2 |  | 2.2 | 22.8 |  | 
7 | Compound 0109 (peptide) peptide: H[Aib]EGTFTSDVSSYLEEQAARK([AEEA-AEEA-γGlu-C18 diacid])FIAWLVRGK([AEEA-AEEA-γGlu-C18 diacid])GGGGGGGGGEASELSTAALGRLSAELHELATLPRTETGSGSP-NH2 |  | 3.2 | 19.1 |  | 
8 | Compound 0102 (peptide) peptide: H[Aib]EGTFTSDVSSYLEEQAAREFIAWLVRGRK(Butyryl(4-SO2NHCO(CH2)16Tz))ELSTAALGRLSAELHELATLPRTETGSGSP-NH2 |  | 14.7 | 9.8 |  | 
9 | Comparator compound 0167 (peptide) peptide: H[Aib]EGTFTSDVSSYLEEQAAREIFAWLVRGRK([AEEA-AEEA-γGlu-Trx-C20 diacid])GGGGEASELSTAALGRLSAELHELATLPRTETGSGSP-NH2 |  |  |  | 10000 | 10.9
10 | Compound 0098 (Lys21 and Lys30 each (10-(4-carboxyphenoxy)decanoyl-gGlu-Ado-Ado); C-terminal amide) peptide: HGEGTFTSDVSSYLEEQAARKFIEWLVRGKGEGGGGGGGGGEASELSTAALGRLSAELHELATLPRTETGSGSP |  | 7.9 | 15.6 |  | 
11 | Compound 0101 (Lys21 and Lys30 each (10-(4-carboxyphenoxy)decanoyl-gGlu-Ado-Ado); C-terminal amide) peptide: HWEGTFTSDVSSYLEEQAARKFIEWLVRGKGEGGGGGGGGGEASELSTAALGRLSAELHELATLPRTETGSGSP |  | 7.1 | 10.2 |  | 
12 | Compound 0095 (peptide) peptide: H[Aib]EGTFTSDVSSYLEGQAAK([AEEA-AEEA-γGlu-Trx-C20 diacid])EFIAWLVRGRGGGGGGGGGEASELSTAALGRLSAELHELATLPRTETGSGSP-NH2 |  | 7.4 | 6.6 |  | 
13 | Comparator compound 0016 (ends and bridges not checked) peptide: H[Aib]EGTFTSDVSSYLEGQAAK([AEEA-AEEA-γGlu-C18 diacid])EFIAWLVRGRGGQEPGQEPK([AEEA-AEEA-γGlu-C18 diacid])CNTATCATQRLAEFLRHSSNNFGPILPPTNVGSNTP-NH2 |  |  |  | 510 | 1550
14 | Compound 0019 (peptide) peptide: H[Aib]EGTFTSDVSSYLEGQAAK([AEEA-AEEA-γGlu-C18 diacid])EFIAWLVRGRGGQEPGQEPEASELSTAALGRLSAELHELATLPRTETGSGSP-NH2 |  | 13.7 | 26.5 |  | 
15 | Compound 0116 (peptide) peptide: H[Aib]EGTFTSDVSSYLEEQAARK([AEEA-AEEA-γGlu-C18 diacid])FIAWLVRGRK([AEEA-AEEA-γGlu-C18 diacid])GGEASELSTAALGRLSAELHELATLPRTETGSGSP-NH2 |  | 1.5 | 21.7 |  | 
16 | Compound 0110 (peptide) peptide: H[Aib]EGTFTSDVSSYLEEQAARK([εLys-AEEA-AEEA-γGlu-C18 diacid])FIAWLVRGK([εLys-AEEA-AEEA-γGlu-C18 diacid])GGGGGGGGGEASELSTAALGRLSAELHELATLPRTETGSGSP-NH2 |  | 2.7 | 40.7 |  | 
17 | Compound 0105 (peptide) peptide: H[Aib]EGTFTSDVSSYLEEQAARK([AEEA-AEEA-γGlu-C16 diacid])FIEWLVRGK([AEEA-AEEA-γGlu-C16 diacid])GEGQEPGGASELSTAALGRLSAELHELATLPRTETGSGSP-NH2 |  | 1.1 | 30.8 |  | 
18 | Compound 0097 (peptide) peptide: HGEGTFTSDVSSYLEEQAARK([AEEA-AEEA-γGlu-Decanoyl(10-(4-HOOC-PhO))])FIEWLVRGK([AEEA-AEEA-γGlu-Decanoyl(10-(4-HOOC-PhO))])GEGGGGGEASELSTAALGRLSAELHELATLPRTETGSGSP-NH2 |  | 10 | 93.1 |  | 
19 | Comparator compound 0015 (ends and bridges not checked) peptide: H[Aib]EGTFTSDVSSYLEGQAAK([AEEA-AEEA-γGlu-C18 diacid])EFIAWLVRGRGGQEPGQEPCNTATCATQRLAEFLRHSSNNFGPILPPTNVGSNTP-NH2 |  |  |  | 45 | 312
20 | Compound 0120 (peptide) peptide: H[Aib]EGTFTSDVSSYLEEQAAREFIAWLVRGRK([AEEA-AEEA-γGlu-Trx-C20 diacid])GGGGEASELSTAALGRLSAELHELATLPRTETGSGSP-NH2 |  | 9.1 | 10.6 |  | 
21 | Compound 0103 (peptide) peptide: H[Aib]EGTFTSDVSSYLEEQAAREFIAWLVRGRK(Butyryl(4-SO2NHCO(CH2)16Tz))EASELSTAALGRLSAELHELATLPRTETGSGSP-NH2 |  | 28.1 | 11.6 |  | 
22 | Comparator compound 0668 (ends and bridges not checked) peptide: H[Aib]EGTFTSDVSSYLEGQAAK([AEEA-AEEA-γGlu-C18 diacid])EFIAWLVRGRGGQEPGQEPK([γGlu-γGlu-C16 diacid])CNTATCATQRLADFLRHSSPNFGAIPSSTNVGSRTY-NH2 |  |  |  | 455 | 10000
23 | Comparator compound 0164 (peptide) peptide: H[Aib]EGTFTSDVSSYLEGQAAKEIFAWLVRGRK([εLys-AEEA-AEEA-γGlu-C18 diacid])GGEASELSTAALGRLSAELHELATLPRTETGSGSP-NH2 |  |  |  | 852 | 29.6
24 | Compound 0114 (peptide) peptide: H[Aib]EGTFTSDVSSYLEEQAAREFIAWLVRGRK([AEEA-AEEA-γGlu-C18 diacid])GGEASELSTAALGRLSAELHELATLPRTETGSGSP-NH2 |  | 1 | 17.5 |  | 

— US20260132182A1 (published 2026)
